Laboratory results taken from PMC3203869, “Altered Antibiotic Transport in OmpC Mutants Isolated from a Series of Clinical Strains of Multi-Drug Resistant E. coli” (PLoS ONE, 2011).

Columns and labels:
Assay in all cases: crystal structure; purified OmpC in detergent (0.6% HESO + 0.1% OPOE, or 1% βOG), crystals grown at 20°C or room temperature; trimer in the crystal
[1] = molecular target: OmpC20 (E. coli (clinical isolate)) (UniProt P06996)
[2] = molecular target: OmpC26 (E. coli (clinical isolate)) (UniProt P06996)
[3] = molecular target: the molecule itself

OmpC20 (from UniProt P06996 22-367) (natural protein)
stoichiometry N [1]: 3

OmpC26 (from UniProt P06996 22-367) (natural protein)
stoichiometry N [2]: 3

B1: OmpCO6 (natural protein)
chain: AEVYNKDGNKLDLYGKVDGLHYFSDDKSVDGDQTYMRLGFKGETQVTDQLTGYGQWEYQIQGNAPESENNSWTRVAFAGLKFQDIGSFDYGRNYGVVYDVTSWTDVLPEFGGDTYGSDNFMQQRGNGFATYRNTDFFGLVDGLNFAVQYQGQNGSVSGENDPDFTGHGITNNGRKALRQNGDGVGGSITYDYEGFGVGAAVSSSKRTWDQNNTGLIGTGDRAETYTGGLKYDANNIYLAAQYTQTYNATRVGSLGWANKAQNFEAVAQYQFDFGLRPSVAYLQSKGKNLGVVAGRNYDDEDILKYVDVGATYYFNKNMSTYVDYKINLLDDNQFTRAAGINTDDIVALGLVYQF
notes: gene amplified by PCR and expressed from pHSG575; Trimer in the crystal; also called OmpC from uropathogenic E. coli O6:H1; source: E. coli strain lacking porins, plasmid pHSG575; purified (detergent extraction, POROS-HQ anion exchange, Superdex 200 gel filtration)
stoichiometry N [3]: 3
